From the Human Domainome abundance scans (Beltran et al. 2025) come the findings set out here.

± gives the uncertainty stated by the source.

B1: SWI/SNF complex subunit SMARCC1, residues 620 to 663; numbered along this chain, Q92922 (parent)
chain: GREWTEQETLLLLEALEMYKDDWNKVSEHVGSRTQDECILHFLR

The series covers variants of B1. Put plainly: abundance fitness (aPCA) (normalised: wild type 0, dead -1); higher = more abundant; growth selection in yeast, the domain comes from the species named. The note with it: Homo sapiens.
As to GREWTEQEGLLLLEALEMYKDDWNKVSEHVGSRTQDECILHFLR [T9G], the abundance fitness is -0.098 ± 0.079. With GREWTEQERLLLLEALEMYKDDWNKVSEHVGSRTQDECILHFLR [T9R], the abundance fitness was found to be 0.252 ± 0.068. In the case of GREWTEQEYLLLLEALEMYKDDWNKVSEHVGSRTQDECILHFLR [T9Y] it was -0.022 ± 0.094. As for GREWTEQEILLLLEALEMYKDDWNKVSEHVGSRTQDECILHFLR [T9I], the figure is 0.264 ± 0.14. For the variant GREWTEQEDLLLLEALEMYKDDWNKVSEHVGSRTQDECILHFLR [T9D], the abundance fitness was -0.075 ± 0.24. Turning to GREWTEQEHLLLLEALEMYKDDWNKVSEHVGSRTQDECILHFLR [T9H], the abundance fitness was -0.023 ± 0.15.

In the case of GREWTEQEKLLLLEALEMYKDDWNKVSEHVGSRTQDECILHFLR [T9K], the abundance fitness was 0.158 ± 0.1. As for GREWTEQEPLLLLEALEMYKDDWNKVSEHVGSRTQDECILHFLR [T9P], the abundance fitness was -0.449 ± 0.13. As for GREWTEQEQLLLLEALEMYKDDWNKVSEHVGSRTQDECILHFLR [T9Q], the figure is 0.319 ± 0.13; as for GREWTEQESLLLLEALEMYKDDWNKVSEHVGSRTQDECILHFLR [T9S], -0.01 ± 0.076; as for GREWTEQEWLLLLEALEMYKDDWNKVSEHVGSRTQDECILHFLR [T9W], -0.595 ± 0.3. As for GREWTEQEELLLLEALEMYKDDWNKVSEHVGSRTQDECILHFLR [T9E], the figure is -0.037 ± 0.091; as for GREWTEQENLLLLEALEMYKDDWNKVSEHVGSRTQDECILHFLR [T9N], -0.04 ± 0.079. In the case of GREWTEQELLLLLEALEMYKDDWNKVSEHVGSRTQDECILHFLR [T9L] it was -0.044 ± 0.062; in that of GREWTEQEFLLLLEALEMYKDDWNKVSEHVGSRTQDECILHFLR [T9F], 0.004 ± 0.074. Regarding GREWTEQEMLLLLEALEMYKDDWNKVSEHVGSRTQDECILHFLR [T9M], the abundance fitness worked out at 0.037 ± 0.11.

Consider GREWTEQEALLLLEALEMYKDDWNKVSEHVGSRTQDECILHFLR [T9A], for which the abundance fitness was -0.085 ± 0.089. With GREWTEQECLLLLEALEMYKDDWNKVSEHVGSRTQDECILHFLR [T9C], the abundance fitness is -0.015 ± 0.12. Regarding GREITEQETLLLLEALEMYKDDWNKVSEHVGSRTQDECILHFLR [W4I], the abundance fitness was 0.253 ± 0.18.

As to GRERTEQETLLLLEALEMYKDDWNKVSEHVGSRTQDECILHFLR [W4R], the abundance fitness was -0.084 ± 0.094. In the case of GREATEQETLLLLEALEMYKDDWNKVSEHVGSRTQDECILHFLR [W4A] it was -0.254 ± 0.17; in that of GRETTEQETLLLLEALEMYKDDWNKVSEHVGSRTQDECILHFLR [W4T], -0.134 ± 0.23.

Regarding GREMTEQETLLLLEALEMYKDDWNKVSEHVGSRTQDECILHFLR [W4M], the abundance fitness was -0.141 ± 0.11.

In the case of GREETEQETLLLLEALEMYKDDWNKVSEHVGSRTQDECILHFLR [W4E], the abundance fitness was determined as 0.023 ± 0.11.

As to GRENTEQETLLLLEALEMYKDDWNKVSEHVGSRTQDECILHFLR [W4N], the abundance fitness was -0.265 ± 0.16. As for GREHTEQETLLLLEALEMYKDDWNKVSEHVGSRTQDECILHFLR [W4H], the figure is -0.4 ± 0.21; as for GREDTEQETLLLLEALEMYKDDWNKVSEHVGSRTQDECILHFLR [W4D], -0.168 ± 0.084. In the case of GREYTEQETLLLLEALEMYKDDWNKVSEHVGSRTQDECILHFLR [W4Y] it was -0.23 ± 0.18; in that of GREGTEQETLLLLEALEMYKDDWNKVSEHVGSRTQDECILHFLR [W4G], -0.153 ± 0.086. As for GRESTEQETLLLLEALEMYKDDWNKVSEHVGSRTQDECILHFLR [W4S], the figure is -0.08 ± 0.12. GRELTEQETLLLLEALEMYKDDWNKVSEHVGSRTQDECILHFLR [W4L]: the abundance fitness was -0.285 ± 0.08.

With GRECTEQETLLLLEALEMYKDDWNKVSEHVGSRTQDECILHFLR [W4C], the abundance fitness is -0.526 ± 0.16. Regarding GREVTEQETLLLLEALEMYKDDWNKVSEHVGSRTQDECILHFLR [W4V], the abundance fitness is -0.147 ± 0.14. For the variant GREWAEQETLLLLEALEMYKDDWNKVSEHVGSRTQDECILHFLR [T5A], the abundance fitness was -0.363 ± 0.12. As for GREWHEQETLLLLEALEMYKDDWNKVSEHVGSRTQDECILHFLR [T5H], the figure is -0.513 ± 0.14; as for GREWDEQETLLLLEALEMYKDDWNKVSEHVGSRTQDECILHFLR [T5D], -0.069 ± 0.13; as for GREWPEQETLLLLEALEMYKDDWNKVSEHVGSRTQDECILHFLR [T5P], -0.572 ± 0.16.

Consider GREWYEQETLLLLEALEMYKDDWNKVSEHVGSRTQDECILHFLR [T5Y], for which the abundance fitness is -0.116 ± 0.11.

As to GREWGEQETLLLLEALEMYKDDWNKVSEHVGSRTQDECILHFLR [T5G], the abundance fitness was -0.755 ± 0.11.

GREWWEQETLLLLEALEMYKDDWNKVSEHVGSRTQDECILHFLR [T5W]: the abundance fitness was -0.693 ± 0.24. In the case of GREWLEQETLLLLEALEMYKDDWNKVSEHVGSRTQDECILHFLR [T5L] it was -0.174 ± 0.065; in that of GREWREQETLLLLEALEMYKDDWNKVSEHVGSRTQDECILHFLR [T5R], -0.241 ± 0.069.

Consider GREWKEQETLLLLEALEMYKDDWNKVSEHVGSRTQDECILHFLR [T5K], for which the abundance fitness stood at 0.03 ± 0.099. As to GREWIEQETLLLLEALEMYKDDWNKVSEHVGSRTQDECILHFLR [T5I], the abundance fitness is -0.201 ± 0.11. In the case of GREWEEQETLLLLEALEMYKDDWNKVSEHVGSRTQDECILHFLR [T5E] it was 0.081 ± 0.1. As for GREWMEQETLLLLEALEMYKDDWNKVSEHVGSRTQDECILHFLR [T5M], the abundance fitness came out at 0.11 ± 0.07. In the case of GREWNEQETLLLLEALEMYKDDWNKVSEHVGSRTQDECILHFLR [T5N] it was -0.086 ± 0.12.

With GREWQEQETLLLLEALEMYKDDWNKVSEHVGSRTQDECILHFLR [T5Q], the abundance fitness is -0.127 ± 0.11.

For the variant GREWVEQETLLLLEALEMYKDDWNKVSEHVGSRTQDECILHFLR [T5V], the abundance fitness is -0.461 ± 0.091.

GREWCEQETLLLLEALEMYKDDWNKVSEHVGSRTQDECILHFLR [T5C]: the abundance fitness was -0.14 ± 0.14. For the variant GREWTEQETPLLLEALEMYKDDWNKVSEHVGSRTQDECILHFLR [L10P], the abundance fitness is -0.287 ± 0.079. As for GREWTEQETMLLLEALEMYKDDWNKVSEHVGSRTQDECILHFLR [L10M], the figure is -0.21 ± 0.13; as for GREWTEQETKLLLEALEMYKDDWNKVSEHVGSRTQDECILHFLR [L10K], 0.176 ± 0.057; as for GREWTEQETHLLLEALEMYKDDWNKVSEHVGSRTQDECILHFLR [L10H], 0.084 ± 0.074. As for GREWTEQETILLLEALEMYKDDWNKVSEHVGSRTQDECILHFLR [L10I], the figure is -0.016 ± 0.32; as for GREWTEQETFLLLEALEMYKDDWNKVSEHVGSRTQDECILHFLR [L10F], -0.008 ± 0.077; as for GREWTEQETNLLLEALEMYKDDWNKVSEHVGSRTQDECILHFLR [L10N], -0.247 ± 0.42. For the variant GREWTEQETELLLEALEMYKDDWNKVSEHVGSRTQDECILHFLR [L10E], the abundance fitness is 0.082 ± 0.069.
